The supplement of paper PMC9732359
± gives the uncertainty stated by the source.

Assay: protein stability index of a GFP-peptide fusion (yeast GPS) (PSI 1-4); higher = more stable; sorted into four equal gates, so the index is relative within each strain
Details: ubr1∆
Method in brief: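 Plasmids isolated from each sorting gate were PCR-amplified and Illumina-sequenced, and barcodes assigned the reads to strains. The gates, four of equal size, were set by GFP/Cherry fluorescence ratio on mid-log cultures in leucine-free medium. These cultures were yeast carrying a pooled library of tiled 17-residue yeast protein peptides fused downstream of GFP on a plasmid that also expresses Cherry. The protein stability index is the sum of every gate's read frequency times its gate number.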
TKKLIQKTVFDELCKLV [SRP54] showed a protein stability index of 1.11 ± 0.095. For TKKPLMVKNVKPSSPPD [SIR4], the protein stability index was 2.69 ± 0.05. With TKPEVASDMSDEDIITI [CDC53] the protein stability index was 2.92 ± 0.12. TKQRLDAYYDLELRNSV [PRP8] gave a protein stability index of 2.74 ± 0.035. TKRSIAIVFEEIKNWIS [YMR129W/POM152] showed a protein stability index of 1.91 ± 0.052. Work on TLERVHLSYCSNLTIYP [GRR1] yielded a protein stability index of 3 ± 0.05. In the case of TLFVRDQDSAVVSSNIK [QCR2], the protein stability index is reported as 2.67 ± 0.17. In the case of TLIDLVKHSPGAIKPFT [ECM29], the protein stability index is reported as 2.92 ± 0.099. Sequence TLIIDQVRKDLGNVIVP [NUT1] has a protein stability index of 2.89 ± 0.14. Sequence TLISENWWHSEFEIPVS [BRR2] has a protein stability index of 1.25 ± 0.059. With TLIVVPFNQGSKQDVEA [FAS2] the protein stability index was 3.3 ± 0.12. In the case of TLQDFHLIFSNARIYNT [SNF2], the protein stability index is reported as 2.79 ± 0.073. TLQLGQEFQLKQINHQG [RPB4] showed a protein stability index of 3.38 ± 0.24. TLSEPVQGELKPTVILK [FAS1] gave a protein stability index of 1.63 ± 0.038. With TLVKGPKEPRLKSQMDT [SKI6] the protein stability index was 3.33 ± 0.091. TMANILYYPQKPLGTTR [RPB2] showed a protein stability index of 1.45 ± 0.04. TMFTAEQSELLKAQITS [SNF2] gave a protein stability index of 2.49 ± 0.036. In the case of TMTMDVFNDAHVLNKVT [RPN1], the protein stability index is reported as 2.25 ± 0.045. With TMTYEEVAKRLVELMFI [FAS1] the protein stability index was 2.14 ± 0.069. TNAAFPFHDPEARLFNI [ECM29] showed a protein stability index of 2.38 ± 0.072. TNGNNAGGGSNKSSVRP [MED6] gave a protein stability index of 3.11 ± 0.088. Work on TNKGPLAQIWLASNMSN [MCD1] yielded a protein stability index of 1.17 ± 0.056. In the case of TNKLLFKRVSQTFEAKL [NUT1], the protein stability index is reported as 1.83 ± 0.04. Sequence TNTHPNFLSKIRNINVQ [SNF2] has a protein stability index of 1.34 ± 0.031. Sequence TPDPSELAAKEEPAKEE [FAS2] has a protein stability index of 2.684 ± 0.019. TPDTKNFFHAKKKDPVN [SNF12] showed a protein stability index of 3.17 ± 0.1. Work on TPEKDLFIGLFTRPLFV [YCS4] yielded a protein stability index of 1.45 ± 0.096. For TPMTRISELPPQIRQEI [YGL172W/NUP49], the protein stability index was 2.86 ± 0.043. In the case of TPPVVVVGVVGYVETPR [RPL3], the protein stability index is reported as 2.86 ± 0.17. For TPSDLSESGSKLNVDQF [POP1], the protein stability index was 3.21 ± 0.1. TQAIADIVQYHLELYTS [PRE3] gave a protein stability index of 2.01 ± 0.042. For TQDESEIKDAETSCDNY [SMC4], the protein stability index was 2.98 ± 0.053. In the case of TQEFSKNYTTETDNEMN [SIR3], the protein stability index is reported as 3.29 ± 0.055. Work on TQKDSARVSPRNNVANK [YAR002W/NUP60] yielded a protein stability index of 3.02 ± 0.072. Work on TQKRLAASVVGVGKRKV [RPL19A] yielded a protein stability index of 1.79 ± 0.11. For TQLDKLRPRKDSKDGTT [SMB1], the protein stability index was 1.77 ± 0.2. TQLKKRAVSGVELRIYV [POP7] gave a protein stability index of 2.78 ± 0.16. With TQVRVEFLEDTSRTIVR [RPS28A] the protein stability index was 3.3 ± 0.14. With TRDEETTKLAFLVEYEG [SIR4] the protein stability index was 2.96 ± 0.13. Sequence TRDETVSLIKKYKLISR [YML103C/NUP188] has a protein stability index of 2.41 ± 0.12. TRFKAVVVVGDSNGHVG [RPS2] showed a protein stability index of 1.99 ± 0.043. Sequence TRIFQALPRKLRRRTAS [POP1] has a protein stability index of 2.73 ± 0.074. Sequence TRKGYIPSSKYAYMMNS [YLR018C/POM34] has a protein stability index of 2.65 ± 0.14. Work on TRKSLNNAVRFSKQCLI [ECM29] yielded a protein stability index of 2.56 ± 0.05. Work on TRPISSQVLDLAKKIAP [SMC2] yielded a protein stability index of 1.95 ± 0.14. Sequence TRTIKQNNFHVLIDLLN [RGR1] has a protein stability index of 1.86 ± 0.12. TSADLKSKAEELTQVPS [UBP6] showed a protein stability index of 3.12 ± 0.18. With TSDNLLTITKAAGANVD [RPP1B] the protein stability index was 2.26 ± 0.082. TSDSESTLYKYLKESKR [SWI3] showed a protein stability index of 2.74 ± 0.054. TSFDRTKKTITPMGGFV [RPL3] showed a protein stability index of 3.21 ± 0.24. For TSGTSSEQFNVWDWNNW [GAL11], the protein stability index was 2.73 ± 0.096. Sequence TSILELGQLYVTMGAKD [RPN6] has a protein stability index of 2.96 ± 0.059. TSNDASNKKETKKKRKP [ITC1] showed a protein stability index of 3.29 ± 0.074. TSNGLKKNPNWLEEYHP [FAS1] gave a protein stability index of 3.38 ± 0.11. For TSNNETNNGNDDNETEN [GRR1], the protein stability index was 2.92 ± 0.055. Work on TSQKMKKMVYVLDSMTK [SRP54] yielded a protein stability index of 2.96 ± 0.078. TSRVTGILLLDSLIQLA [YJL039C/NUP192] gave a protein stability index of 1.95 ± 0.048. Sequence TSSIFQESFNSVQNLDQ [NUT1] has a protein stability index of 3.14 ± 0.054. TSSRGRDHKSYSQSPPR [SMC4] showed a protein stability index of 2.83 ± 0.038. For TSTGTTIVGVKFNNGVV [PUP1], the protein stability index was 2.71 ± 0.095. With TSVDGKKRSKVRKETYS [HTB2] the protein stability index was 3.31 ± 0.067. Sequence TSVIQDLSEKILNDIET [BRR2] has a protein stability index of 3.09 ± 0.076. TTDKNTTDDKSMDTKKK [BRN1] showed a protein stability index of 3.33 ± 0.053. In the case of TTDMISVLYQLSTSAFM [YML031W/NDC1], the protein stability index is reported as 1.14 ± 0.11. With TTNNNNTNNNNTNNNNN [SWI1] the protein stability index was 3.42 ± 0.079. TTPKKIKHKHKKVKLAV [RPS31] gave a protein stability index of 1.91 ± 0.059. TTPVKLGPGIYCDPNTQ [RRP40] gave a protein stability index of 2.35 ± 0.05. With TTQGGLTSVTRHGFNRS [RPO21] the protein stability index was 3.26 ± 0.071. Sequence TTTTANINEVKKASDLV [NUT1] has a protein stability index of 2.62 ± 0.074. Work on TTYTYQQPNPLQDLISV [ROX3] yielded a protein stability index of 2.08 ± 0.1. For TVASSKVGYTLPSHIIS [RPL4A], the protein stability index was 3.25 ± 0.043. TVEALDFREKALYIAMM [RET1] gave a protein stability index of 2.59 ± 0.082. TVKLYLPEILNVLCVNI [ECM29] showed a protein stability index of 1.42 ± 0.045. Sequence TVKTNDELMVIYISNLV [RPN8] has a protein stability index of 1.29 ± 0.078. TVLCTPTGGKAKLSEGT [RPS27B] showed a protein stability index of 3.15 ± 0.1. TVNGQARDLATMTYEEV [FAS1] showed a protein stability index of 2.95 ± 0.045. TVPEYLKTADNRDRSFQ [PGD1] gave a protein stability index of 3.07 ± 0.049. Work on TVPNINFSGLNGGITNT [YOR098C/NUP1] yielded a protein stability index of 3.67 ± 0.12. TVQENELLKSSLQKAGS [AAR2] gave a protein stability index of 3.13 ± 0.084. Sequence TVRVDKASTYGELVLDI [SNF12] has a protein stability index of 1.81 ± 0.044. TVTSLDVVYALKRQGRT [HHF1] gave a protein stability index of 2.31 ± 0.076. In the case of TVVGNASFGKNLQIRQL [DSN1], the protein stability index is reported as 2.97 ± 0.2. TVVTVVSTAKFSGKYLK [RPL22A] gave a protein stability index of 2.96 ± 0.065. Work on TWIQQFKSTMLQVSEKD [ARP7] yielded a protein stability index of 1.73 ± 0.053. With TWSLILNECLKTIQINN [YML031W/NDC1] the protein stability index was 1.86 ± 0.042. TWTNSKIFIKDPKFVNS [YML103C/NUP188] showed a protein stability index of 1.73 ± 0.062. TYASVTGLFTLERTDLK [RPN7] gave a protein stability index of 2.62 ± 0.21. With TYDKETITDLIEQGIPK [SIR4] the protein stability index was 3.41 ± 0.043. Sequence TYLTQEILILINDPTNK [SIN4] has a protein stability index of 1.26 ± 0.05. TYQTERFTKFSDTLKEF [YDL116W/NUP84] showed a protein stability index of 1.97 ± 0.046. For VAADGKLVTYIVKFKQK [YLR335W/NUP2], the protein stability index was 2.02 ± 0.05. For VAAKWNTSLISLFTYFR [PRP8], the protein stability index was 2 ± 0.039. In the case of VAARMFHILLKLILEWV [ECM29], the protein stability index is reported as 2.1 ± 0.094. Sequence VAATNTPIIFIGTGEHI [SRP54] has a protein stability index of 2.6 ± 0.071. VAEGKSKQDASPKPYAV [RPL8A] gave a protein stability index of 3.02 ± 0.058. With VAEIVQNVISLGSLTVE [RPC82] the protein stability index was 1.68 ± 0.11. VAFVCSPISDSRDELIR [RPN10] showed a protein stability index of 2.34 ± 0.099. With VAGAGAASGAAAAGGDA [RPP1B] the protein stability index was 2.62 ± 0.078. Work on VAGGVAGGEAGEAEAEK [RPP1A] yielded a protein stability index of 3.45 ± 0.13.
